The test system of one series is CC(=O)CC(=O)O. Nature of the series: purified protein. The settings on record: 1 mM succinyl-CoA, pH 8.6, 37 °C, 15 mM MgCl2.
Series [1] deals with CC(C)(COP(=O)(O)OP(=O)(O)OC[C@H]1O[C@@H](n2cnc3c(N)ncnc32)[C@H](O)[C@@H]1OP(=O)(O)O)[C@@H](O)C(=O)NCCC(=O)NCCSC(=O)CCC(=O)O. Nature of the series: purified protein. The note with it: acetoacetate co-substrate, pH 8.6, 37 °C, 15 mM MgCl2.

Experimental findings from paper PMC7402102 are described below.

A word on the Km: it is the substrate concentration at which the rate is half of its maximum. A word on the kcat: it is the maximal rate divided by the concentration of active sites.

In the case of HsSCOT (Homo sapiens), in the series with CC(=O)CC(=O)O, the Km was determined as 765 µM and the kcat came out at 105 s⁻¹. In series [1], the Michaelis constant (Km) came to 971 µM and the kcat turned out to be 190 s⁻¹.
